Reference: patent US20170355757A1 (Regeneron, published 2017)

T1: monkey C5-mmh (monkey, UniProt P01031 19-1676 (human entry), limits assumed)
T1 construct: Recombinant monkey C5 with a C-terminal myc-myc-hexahistidine tag
T1 chain: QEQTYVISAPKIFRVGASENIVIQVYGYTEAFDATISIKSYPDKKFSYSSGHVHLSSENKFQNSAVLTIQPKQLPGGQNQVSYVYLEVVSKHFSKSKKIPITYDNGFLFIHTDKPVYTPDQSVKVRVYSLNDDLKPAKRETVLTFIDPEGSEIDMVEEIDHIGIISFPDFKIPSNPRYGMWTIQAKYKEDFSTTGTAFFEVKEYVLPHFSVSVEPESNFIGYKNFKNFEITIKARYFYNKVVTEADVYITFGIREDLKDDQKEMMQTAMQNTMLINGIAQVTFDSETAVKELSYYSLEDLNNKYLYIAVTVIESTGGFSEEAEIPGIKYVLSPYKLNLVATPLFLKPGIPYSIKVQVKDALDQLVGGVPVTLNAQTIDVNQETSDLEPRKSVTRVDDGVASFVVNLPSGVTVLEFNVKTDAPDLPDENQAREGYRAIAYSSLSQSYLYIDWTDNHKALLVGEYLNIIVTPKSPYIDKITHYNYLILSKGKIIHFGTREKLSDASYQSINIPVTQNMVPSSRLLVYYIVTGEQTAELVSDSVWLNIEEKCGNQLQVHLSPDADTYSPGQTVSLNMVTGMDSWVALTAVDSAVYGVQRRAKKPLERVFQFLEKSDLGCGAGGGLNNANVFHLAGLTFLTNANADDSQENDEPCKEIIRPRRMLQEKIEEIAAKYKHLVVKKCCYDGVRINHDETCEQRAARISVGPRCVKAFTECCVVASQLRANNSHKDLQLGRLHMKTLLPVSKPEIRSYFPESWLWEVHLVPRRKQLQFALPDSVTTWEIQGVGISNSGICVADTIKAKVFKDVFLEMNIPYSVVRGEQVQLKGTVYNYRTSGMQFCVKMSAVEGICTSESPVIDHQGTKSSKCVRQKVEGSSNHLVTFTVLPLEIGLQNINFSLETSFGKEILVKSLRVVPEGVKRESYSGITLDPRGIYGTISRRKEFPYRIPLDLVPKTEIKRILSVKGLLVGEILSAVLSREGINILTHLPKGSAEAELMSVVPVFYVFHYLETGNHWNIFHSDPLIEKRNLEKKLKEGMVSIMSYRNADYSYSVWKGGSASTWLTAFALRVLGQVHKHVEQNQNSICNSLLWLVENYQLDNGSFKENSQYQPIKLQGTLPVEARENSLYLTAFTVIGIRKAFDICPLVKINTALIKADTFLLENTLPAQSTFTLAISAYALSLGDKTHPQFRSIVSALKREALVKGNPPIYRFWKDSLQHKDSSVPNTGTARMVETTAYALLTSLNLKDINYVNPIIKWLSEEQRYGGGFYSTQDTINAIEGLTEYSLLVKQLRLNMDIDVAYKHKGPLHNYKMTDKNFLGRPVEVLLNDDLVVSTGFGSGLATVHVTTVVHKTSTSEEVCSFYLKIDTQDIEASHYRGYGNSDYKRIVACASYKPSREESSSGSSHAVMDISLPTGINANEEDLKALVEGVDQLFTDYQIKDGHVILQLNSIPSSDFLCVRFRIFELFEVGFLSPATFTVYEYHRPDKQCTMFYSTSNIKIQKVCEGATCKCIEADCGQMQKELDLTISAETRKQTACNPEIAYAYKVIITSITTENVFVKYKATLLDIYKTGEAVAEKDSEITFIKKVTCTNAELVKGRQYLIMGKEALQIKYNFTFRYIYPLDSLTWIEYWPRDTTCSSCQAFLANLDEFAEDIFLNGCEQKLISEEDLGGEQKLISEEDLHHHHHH

B1: H4H12170P (antibody, human IgG4, V domains shown)
VH: QVQLVESGGGVVQPGRSLRLSCAASGFTFSGYGMHWVRQAPGKGLEWVALIWLDGSNDYYADSVKGRFTISRDNSKNTLYLQMNRLRAEDTAVYYCARDGPVAAIPDYWGQGTLVTVSS
VL: DIQMTQSPSTLSASVGDRVTITCRASQSISRWLAWYQLKPGKAPKLLIYKASSLESGVPSRFSGSGSGTDFTLTISSLQPDDFATYYCQQYNTYSYTFGQGTKLEIK
notes: Human IgG4 Fc with S108P hinge mutation (H4H)
B2: H4H12168P (antibody, human IgG4, V domains shown)
VH: QVQLVESGGGVVQPGGSLRLSCAASGFTFGGHAMHWVRQAPGKGLEWLAVISSDGSNKQYADSVKGRFTISRDNPKNTLYLQMNSLRVGDTAIYYCAKEVAPRYYYYGLDVWGQGTTVTVSS
VL: DIQMTQSPSSLSASVGDRVTITCRASQDISNFLAWYQQKPGKVPKLLIYTASTLQSGVPSRFSGSGSGTDFTLTVSSLQPEDVATYYCQKYAGALTFGPGTKVDIK
notes: as for B1
B3: H4H11686N (antibody, V domains shown)
VH: QVQLVESGGGLVKPGGSLRLSCAASGFTFSDYYMSWIRQAPGKGLEWVSYISSSGNTIKYADSMKGRFTISRDNAKKSLFVEMNSLRAEDTAVYYCARYKSSSDYFDHWGQGTLVTVSS
VL: EIVLTQSPATLSLSPGERATLSCRASQSVRSYLAWYQQKPGQAPRLLIYDASNRATAIPARFSGSGSGTDFTLTISSLEPEDLAVYYCQQSGNWPLTFGGGTKVEIK
notes: also called H2M11686N
B4: H4H12177P2 (antibody, human IgG4, V domains shown)
VH: EVQLVESGGGVVQRGESLRLSCSASDFIFKDYAMYWVRQIPGKGLEWISLISGDGDTTWYGDSVKGRFTISRDNNENSLFLQMNDLRTEDTAMYYCARDMGWNFFQLQYWGQGTLVTVSS
VL: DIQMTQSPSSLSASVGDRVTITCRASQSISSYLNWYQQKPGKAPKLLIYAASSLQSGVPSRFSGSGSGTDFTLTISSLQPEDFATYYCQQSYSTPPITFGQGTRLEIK
notes: as for B1
B5: H4H12164P (antibody, human IgG4, V domains shown)
VH: EVQLVESGGGLVRSGGSLRLSCAASGFTFNRYAMTWVRQAPGKGLEWVSAISGSGSSTYYTDSVKGRFTISRDNSKNSVDLQMHSLRVEDTAIYYCARGTTVTTGYGMDVWGQGTTVTVSS
VL: DIQMTQSPSSLSASVGDRVTFTCQASQDITNSLNWYQQKPGRAPKLLIYDASYLKAGVPSRFSGSGSGTDFTFTISSLQPEDIATYYCQQYDDLPYTFGQGTKLEIK
notes: as for B1

The binders below were run against T2, human C5 R885H-mmh (human, UniProt P01031 19-1676) (assay: SPR, mAb captured via anti-hFc, 25C).
T2 construct: also called human C5 variant R885H
Procedure, shortened: (§1)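 Anti-C5 mAbs were held by immobilised mouse anti-human Fc, and untagged or mmh-tagged C5 flowed 3 min, then buffer 8 min, in HBST pH 7.4.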

| 100 nM Human C5 R885H-mmh Bound (RU) | Kd [nM] | koff [s⁻¹] | kon [M⁻¹ s⁻¹] | t1/2 [min] | Binder |
| --- | --- | --- | --- | --- | --- |
| 442 | 0.394 | 0.000161 | 409000 | 72 | B1 |
| 197 | 4.05 | 0.000214 | 52900 | 54 | B2 |
| 259 | 0.491 | 0.000106 | 216000 | 109 | B3 |
| 232 | 4.01 | 0.000592 | 148000 | 20 | B4 |
| 295 | 1.19 | 0.000187 | 158000 | 62 | B5 |

What follows are binders tested against T3, human C5 R885C-mmh (human, UniProt P01031 19-1676) (assay: SPR, mAb captured via anti-hFc, 25C).
T3 construct: also called human C5 variant R885C
Procedure, shortened: as §1

| 100 nM Human C5 R885C-mmh Bound (RU) | Kd [nM] | koff [s⁻¹] | kon [M⁻¹ s⁻¹] | t1/2 [min] | Binder |
| --- | --- | --- | --- | --- | --- |
| 427 | 0.447 | 0.00016 | 357000 | 72 | B1 |
| 144 | 3.27 | 0.000199 | 60900 | 58 | B2 |
| 253 | 0.534 | 9.49e-05 | 178000 | 122 | B3 |
| 177 | 13.2 | 0.00132 | 100000 | 9 | B4 |
| 249 | 1.19 | 0.000182 | 153000 | 63 | B5 |

The binders below were run against T2, human C5 R885H-mmh (assay: SPR, mAb captured via anti-hFc, 37C).
Procedure, shortened: as §1

| 100 nM Human C5 R885H-mmh Bound (RU) | Kd [nM] | koff [s⁻¹] | kon [M⁻¹ s⁻¹] | t1/2 [min] | Binder |
| --- | --- | --- | --- | --- | --- |
| 64 | 1.5 | 0.000839 | 559000 | 14 | B1 |
| 29 | 50.4 | 0.00123 | 24300 | 9 | B2 |
| 74 | 1.91 | 0.0008 | 419000 | 14 | B3 |
| 51 | 10 | 0.00276 | 276000 | 4 | B4 |
| 68 | 5.46 | 0.00106 | 195000 | 11 | B5 |

Each binder was assayed against T3, human C5 R885C-mmh (assay: SPR, mAb captured via anti-hFc, 37C).
Procedure, shortened: as §1

| 100 nM Human C5 R885C-mmh Bound (RU) | Kd [nM] | koff [s⁻¹] | kon [M⁻¹ s⁻¹] | t1/2 [min] | Binder |
| --- | --- | --- | --- | --- | --- |
| 61 | 2.05 | 0.00087 | 424000 | 13 | B1 |
| 21 | 8.9 | 0.000569 | 63800 | 20 | B2 |
| 69 | 2.78 | 0.000791 | 284000 | 15 | B3 |
| 31 | 47.6 | 0.00507 | 107000 | 2 | B4 |
| 64 | 5.85 | 0.00104 | 177000 | 11 | B5 |

Target: T1, monkey C5-mmh
Test: SPR, mAb captured via anti-hFc, 37C
Procedure, shortened: as §1

| 100 nM monkey C5-mmh Bound (RU) | Kd [nM] | koff [s⁻¹] | kon [M⁻¹ s⁻¹] | t1/2 [min] | Binder |
| --- | --- | --- | --- | --- | --- |
| 60 | 1.67 | 0.000871 | 521000 | 13 | B1 |
| 29 | 12.7 | 0.000676 | 53300 | 17 | B2 |
| 195 | 8.88 | 0.00207 | 233000 | 6 | B3 |
| 27 | 47.7 | 0.00717 | 150000 | 2 | B4 |
| 99 | 6.3 | 0.00117 | 186000 | 10 | B5 |

These binders were tested against T4, human C5 (human, UniProt P01031 19-1676) (assay: SPR, mAb captured via anti-hFc, dissociation at pH7.4 vs pH6.0, 25C).
T4 construct: Bought human C5 (EMD #204888, said elsewhere to be purified from plasma); also called hC5; complement component 5
Protocol: Effect of pH on the rate of dissociation of recombinant human C5 bound to purified anti-C5 monoclonal antibodies was determined using a real-time surface plasmon resonance biosensor using a Biacore T200 instrument. The Biacore sensor surface was first derivatized by amine coupling with a monoclonal mouse anti-human Fc antibody (GE, # BR-1008-39) to capture anti-C5 monoclonal antibodies expressed with human IgG4 Fc. All Biacore binding studies were performed using two running buffers PBS-T, pH7.4 (0.01M Na₂HPO₄/NaH₂PO₄, 0.15M NaCl, 0.05% v/v Tween-20, adjusted to pH7.4) and PBS-T, pH6.0 (0.01M Na₂HPO₄/NaH₂PO₄, 0.15M NaCl, 0.05% v/v Tween-20, adjusted to pH6.0). […] Binding dissociative half-lives (t %) were calculated from kd as: […]

| t1/2 Ratio pH7.4/pH6.0 | Binder |
| --- | --- |
| ≤ 0.5 | B1 |
| 1.5 | B2 |
| 2 | B3 |
| ≤ 0.5 | B4 |
| 0.3 | B5 |
